Data as given in patent US20250026844A1.
“And” between values parts separate entries of the source, which are not always exact repeats. Identical values can stand only once.

Key:
[1] = biological target: human BCMA on cells (human) (UniProt Q02223); assay: FACS, H929 cells
[2] = biological target: human BCMA on cells (human) (UniProt Q02223); assay: FACS, U266 cells
[3] = biological target: human BCMA on cells (human) (UniProt Q02223); assay: FACS, H929 cells; remark: listed apart in the source
[4] = biological target: human BCMA on cells (human) (UniProt Q02223); assay: FACS, U266 cells; remark: listed apart in the source
[5] = biological target: human BCMA on cells (human) (UniProt Q02223); assay: FACS, H929 cells; remark: listed apart in the source
[6] = biological target: human BCMA on cells (human) (UniProt Q02223); assay: FACS, U266 cells; remark: listed apart in the source
[7] = biological target: human BCMA on cells (human) (UniProt Q02223); assay: FACS, H929 cells; remark: listed apart in the source
[8] = biological target: human BCMA on cells (human) (UniProt Q02223); assay: FACS, U266 cells; remark: listed apart in the source
[9] = biological target: human BCMA on cells (human) (UniProt Q02223); assay: FACS, Flp-in CHO-human BCMA cells
[10] = biological target: monkey BCMA on Flp-inCHO cells (monkey); assay: FACS, Flp-in CHO-monkey BCMA cells
[11] = biological target: human BCMA-His protein (human) (UniProt Q02223); assay: ELISA, coated human BCMA-His, antibody 1 nM
Chain of human BCMA-His protein (human) (Q02223 1-54 limits assumed): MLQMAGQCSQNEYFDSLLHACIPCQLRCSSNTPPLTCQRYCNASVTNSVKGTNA

[12] = biological target: human BCMA-His protein (human) (UniProt Q02223); assay: ELISA, coated human BCMA-His, antibody 10 nM
[13] = biological target: monkey BCMA-His protein (monkey); assay: ELISA, coated monkey BCMA-His, antibody 1 nM
Chain of monkey BCMA-His protein (monkey) (A0A2K5 entry or part of it limits assumed): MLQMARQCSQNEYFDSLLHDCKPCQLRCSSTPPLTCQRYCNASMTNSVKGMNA

[14] = biological target: human BCMA-His protein (human) (UniProt Q02223); assay: ELISA, coated human BCMA-His, antibody 0.1 nM
[15] = biological target: human BCMA-His protein (human) (UniProt Q02223); assay: ELISA, coated human BCMA-His, antibody 100 nM
[16] = biological target: monkey BCMA-His protein (monkey); assay: ELISA, coated monkey BCMA-His, antibody 10 nM
[17] = biological target: human BCMA-His protein (human) (UniProt Q02223); assay: ELISA, coated human BCMA-His, antibody 0.01 nM
[18] = biological target: monkey BCMA-His protein (monkey); assay: ELISA, coated monkey BCMA-His, antibody 0.1 nM
[19] = biological target: monkey BCMA-His protein (monkey); assay: ELISA, coated monkey BCMA-His, antibody 100 nM
[20] = biological target: human BCMA-His protein (human) (UniProt Q02223); assay: ELISA, coated human BCMA-His, antibody 0.001 nM
[21] = biological target: monkey BCMA-His protein (monkey); assay: ELISA, coated monkey BCMA-His, antibody 0.01 nM
[22] = biological target: human BCMA-His protein (human) (UniProt Q02223); assay: ELISA, coated human BCMA-His, antibody 0.0001 nM
[23] = biological target: monkey BCMA-His protein (monkey); assay: ELISA, coated monkey BCMA-His, antibody 0.001 nM
[24] = biological target: monkey BCMA-His protein (monkey); assay: ELISA, coated monkey BCMA-His, antibody 0.0001 nM

Chain of human BCMA on cells (human) (Q02223 whole entry): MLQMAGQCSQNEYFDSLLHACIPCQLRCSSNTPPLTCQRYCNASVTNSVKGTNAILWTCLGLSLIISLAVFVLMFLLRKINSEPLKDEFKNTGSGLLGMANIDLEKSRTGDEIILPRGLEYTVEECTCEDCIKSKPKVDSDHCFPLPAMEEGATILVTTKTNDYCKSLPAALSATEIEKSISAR

Maximum mean fluorescence intensity [1]: 110 MFI
Maximum mean fluorescence intensity [2]: 103 MFI
Maximum mean fluorescence intensity [3]: 99 MFI and 91 MFI and 167 MFI
Maximum mean fluorescence intensity [4]: 108 MFI and 111 MFI and 119 MFI
Maximum mean fluorescence intensity [5]: 121 MFI
Maximum mean fluorescence intensity [6]: 124 MFI
Maximum mean fluorescence intensity [7]: 93 MFI
Maximum mean fluorescence intensity [8]: 149 MFI
Cell mean fluorescence density [9]: 54.6 MFI
Cell mean fluorescence density [10]: 49 MFI
OD450 nm [11]: 0.05 OD450 nm
OD450 nm [12]: 0.07 OD450 nm
OD450 nm [13]: 0.05 OD450 nm
OD450 nm [14]: 0.05 OD450 nm
OD450 nm [15]: 0.12 OD450 nm
OD450 nm [16]: 0.06 OD450 nm
OD450 nm [17]: 0.05 OD450 nm
OD450 nm [18]: 0.05 OD450 nm
OD450 nm [19]: 0.1 OD450 nm
OD450 nm [20]: 0.05 OD450 nm
OD450 nm [21]: 0.04 OD450 nm
OD450 nm [22]: 0.05 OD450 nm
OD450 nm [23]: 0.05 OD450 nm
OD450 nm [24]: 0.05 OD450 nm
Substance: anti-hel-hlgG1 (negative control antibody against hen egg lysozyme)
